# Reference: patent publication US6884600B1, “Protein phosphatase-1 catalytic subunit interactions” (Medical Research Council London, priority 1996, dated 2005)
# B1: MBP-M110-(K933-I1004): maltose binding protein fusion of M110-(K933-I1004) (protein)
# chain: KLYEQILAENEKLKAQLHDTNMELTDLKLQLEKTTQRQERFADRSLLEMEKRVSGKSQYLLGGKKSSRKKDI
# modifications: left off: large carriers
# B2: M110 subunit: 110 kDa myofibrillar-binding subunit of PP1 (protein)
# chain: MKMADAKQKRNEQLKRWIGSETDLEPPVVKRKKTKVKFDDGAVFLAACSSGDTEEVLRLLERGADINYANVDGLTALHQACIDDNVDMVKFLVENGANINQPDNEGWIPLHAAASCGYLDIAEYLISQGAHVGAVNSEGDTPLDIAEEEAMEELLQNEVNRQGVDIEAARKEEERIMLRDARQWLNSGHINDVRHAKSGGTALHVAAAKGYTEVLKLLIQARYDVNIKDYDGWTPLHAAAHWGKEEACRILVENLCDMEAVNKVGQTAFDVADEDILGYLEELQKKQNLLHSEKREKKSPLIESTANLDNNQTQKTFKNKETLIMEQEKNASSIESLEHEKADEEEEGKKDESSCSSEEEEDDDSESEAETDKAKTLANANTTSTQSASMTAPSVAGGQGTPTSPLKKFPTSTTKVSPKEEERKDESPASWRLGLRKTGSYGALAEITASKEAQKEKDSAGVIRSASSPRLSSSLDNKEKEKDGKGTRLAYVAPTIPRRLASTSDIDEKENRDSSASSIRSGSSYARRKWEEDVKKNSLNEGPTSLNTSYQRSGSFGRRQDDLVSSNVPSTASTVTSSAGLQKTLPASANTTTKSTTGSTSAGVQSSTSNRLWAEDSTEKEKDSVPTAVTVPVAPSVVNAAATTTAMTTATSGTVSSTSEVRERRRSYLTPVRDEESESQRKARSRQARQSRRSTQGVTLTDLQEAEKTIGRSRSTRTREQENEEKEKEEKEKQDKEKQEEKKESETKDDDYRQRYSRTVEEPYHRYRPTSTSTSTSSTSSLSTSTSSLSSSSQLNRPNSLIGITSAYSRSGTKESEREGGKKEEEKEEDKSQPKSIRERRRPREKRRSTGVSFWTQDSDENEQEHQSDSEEGTNKKETQSDSLSRYDTGSLSVSSGDRYDSAQGRSGSQSYLEDRKPYCSRLEKEDSTDFKKLYEQILAENEKLKAQLHDTNMELTDLKLQLEKTTQRQERFADRSLLEMEKRVSGKSQYLLGGKKSSRKKDI
# B3: MBP-M110-(R714-I1004): maltose binding protein fusion of M110-(R714-I1004) (protein)
# chain: RSTRTREQENEEKEKEEKEKQDKEKQEEKKESETKDDDYRQRYSRTVEEPYHRYRPTSTSTSTSSTSSLSTSTSSLSSSSQLNRPNSLIGITSAYSRSGTKESEREGGKKEEEKEEDKSQPKSIRERRRPREKRRSTGVSFWTQDSDENEQEHQSDSEEGTNKKETQSDSLSRYDTGSLSVSSGDRYDSAQGRSGSQSYLEDRKPYCSRLEKEDSTDFKKLYEQILAENEKLKAQLHDTNMELTDLKLQLEKTTQRQERFADRSLLEMEKRVSGKSQYLLGGKKSSRKKDI
# modifications: left off: large carriers
# B4: M110-(R714-L934): chicken gizzard M110 fragment, residues 714-934 (protein)
# chain: RSTRTREQENEEKEKEEKEKQDKEKQEEKKESETKDDDYRQRYSRTVEEPYHRYRPTSTSTSTSSTSSLSTSTSSLSSSSQLNRPNSLIGITSAYSRSGTKESEREGGKKEEEKEEDKSQPKSIRERRRPREKRRSTGVSFWTQDSDENEQEHQSDSEEGTNKKETQSDSLSRYDTGSLSVSSGDRYDSAQGRSGSQSYLEDRKPYCSRLEKEDSTDFKKLGTGRRFTTS
# modifications: left off: large carriers
# B5: MBP-M110-(R714-L934): maltose binding protein fusion of M110-(R714-L934) (protein)
# chain: B4 chain
# modifications: left off: large carriers
# Test system: M21 subunit
# Assay: Far Western blotting: interaction with the M21 subunit
# Type: binding, chicken
# Conditions: for recognised by digoxigenin-labelled M21 subunit in Far Western blotting: probe 0.2 μg/ml
# Procedure: A) PP1M 5 μg (track 1), 10 μg bacterial extract containing M110-(R714-I1004) (track 2), MBP-M110-(R714-I004) 1 μg (track 3), MBP-M110-(R714-L934) 1 μg (track 4), MBP-M110-(K933-I1004) 1 μg (track 5), MBP 1 μg (track 6), M110-(M1-E309) 2 μg (lane 7) and M110-(M1-S477) 2 μg (track 8) were run on a 12% SDS/polyacrylamide gel and stained with Coomassie Blue. B) same as A) except that 10-fold less protein was electrophoresed and after transfer to nitrocellulose the proteins were probed with digoxigenin-labelled M21 subunit (0.2 μg/ml). C) same as B) except that, after electrophoresis, the proteins were transferred to nitrocellulose and probed with digoxigenin-labelled M21-(M1-L146) (0.2 μg/ml).
# A) GST-M21 5 μg (track 1), M21 5 μg (track 2), M21-(M1-L146) 5 μg (track 3), M21-(M1-E110) 20 μg (track 4) and M21-(E110-K186) 5 μg (track 5) were run on 16.5% polyacrylamide gels and stained with Coomassie Blue. The marker proteins ovalbumin (43 kDa) and carbonic anhydrase (29 kDa) are indicated. B) GST-M21 0.5 μg (track 1), M21 0.5 μg (track 2), M21-M1-L146) 0.5 μg (track 3), M21-(M1-E110) 5 μg (track 4) and M21-(E110-K186) 5 μg (track 5) were electrophoresed as in A) and after transfer to nitrocellulose the blots were probed with digoxigenin-labelled MBP-M110-(K933-I1004) (0.2 μg/Ml). C) same as B) except that, after electrophoresis, the proteins were transferred to nitrocellulose and probed with digoxigenin-labelled M21 subunit (0.2 μg/ml).
# PP1M (0.5 μAg) was electrophoresed on a 12% SDS/polyacrylamide gel, transferred to nitrocellulose and probed with digoxigenin-labelled M21 subunit (0.2 μg/ml) (track 1) or digoxigenin-labelled M21-(M1-L146) (0.2 μg/ml) (track 2). The positions of the M110 subunit, the M21 subunit and PP1c are marked.
# Proteins were labelled with digoxigenin and Far Western analyses carried out as described, except that the digoxigenin-labelled probe was used at a concentration of 0.2 μg/ml instead of 2 μg/ml. SDS/polyacrylamide gel electrophoresis was carried out on 7.5-15% gels according to Laemmli and on 16.5% gels according to Schagger and von Jagow. Protein was estimated according to Bradford.
# Sequence of M21 subunit (as listed by the source): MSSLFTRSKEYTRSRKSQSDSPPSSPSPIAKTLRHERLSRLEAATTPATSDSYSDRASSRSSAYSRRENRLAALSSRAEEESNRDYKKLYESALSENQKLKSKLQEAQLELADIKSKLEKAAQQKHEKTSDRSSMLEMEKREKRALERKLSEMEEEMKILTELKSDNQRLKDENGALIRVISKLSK
Molecule,digoxigenin-labelled probe recognises the full length M21 subunit and M21(M1-L146) in Far Western blotting,recognised by digoxigenin-labelled M21 subunit in Far Western blotting
B1,recognised,
B2,,recognised
B3,recognised,
B4,,not
B5,not,
